For assay [1], the target named is T1, t-SHP-2 (SHP-2 tandem SH2 domains, amino acids 1-225) (Homo sapiens, UniProt Q06124).
T1 construct: made in house
T1 sequence (Q06124 1-225): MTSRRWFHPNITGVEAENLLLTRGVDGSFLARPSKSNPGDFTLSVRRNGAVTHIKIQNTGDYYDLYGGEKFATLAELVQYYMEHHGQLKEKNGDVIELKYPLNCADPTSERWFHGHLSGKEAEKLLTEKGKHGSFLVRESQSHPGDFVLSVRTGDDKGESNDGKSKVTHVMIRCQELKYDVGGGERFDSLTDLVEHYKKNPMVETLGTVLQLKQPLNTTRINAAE
Put plainly: Isothermal titration calorimetry of PD-1 phosphopeptides with t-SHP-2. Type of assay: binding. The following applies: for Kd: ITC, MicroCal ITC200, peptide 50-100 µM titrated into t-SHP-2 3-5 µM, 19 injections, 20 °C, 50 mM HEPES pH 7.4, 100 mM NaCl, 5 mM TCEP. On the procedure:
Isothermal titration calorimetry (ITC) was performed on a MicroCal ITC200 instrument (Malvern, Worcestershire, UK), using established methodology. Briefly, PD-1 phosphopeptides (PD-1cyto-pITIM-pITSM, PD-1cyto-ITIM-pITSM and PD-1cyto-pITIM-ITSM) and SHP-2 tandem-SH2 protein (t-SHP-2) were prepared in buffer containing 50 mM HEPES pH 7.4, 100 mM NaCl, 5 mM TCEP. Each peptide (50–100 µM) was titrated into a t-SHP-2 sample (3–5 µM) in a total of 19 injections at 20^ oC. We used reference power 6.0, initial delay 60 s and stirring speed 750 rpm. Injection volume was 0.4 µl for first injection and 2 µl for subsequent injections, injection duration was 0.8 s for first injection and 4 s for subsequent injections, with 150 s spacing and 5 s filter period. Reference cell was filled with sterile Milli-Q water. Controls of peptide titrations into buffer were run for baseline corrections. Data analysis was done using Origin 7.0 software.
On the technique in general: Isothermal titration calorimetry measures the heat released or taken up as one component is titrated into another.

A further assay has as its target PD1LgY223F. Briefly: NanoBiT proximity assay (split luciferase) in HEK-293 cells. As to conditions: PD1SmY223F + PD1LgY223F + SHP2WT, Fyn (-) kinase inactive; parent: est. 100; read off a plot.
A further assay relates to SHP-2-WT. Put plainly: SHP-2 phosphatase activity, DiFMUP substrate. In kind it is biochemical.
A further assay has as its target PD1LgDM. Briefly: NanoBiT proximity assay (split luciferase) in HEK-293 cells. As to conditions: PD1SmDM + PD1LgDM + SHP2WT, read off a plot.
Assay [2] concerns the target SHP-2 1-225 (UniProt Q06124). Briefly: native PAGE mobility shift. The following applies: reference: PD-1cyto-pITIM-pITSM (pY223 + pY248).
In assay [3] the target is SHP-2 1-225 (UniProt Q06124). Briefly: ITC. As to conditions: reference: PD-1cyto-pITIM-pITSM (pY223 + pY248); sites Y248.
Another assay has as its target T2, SHP-2-full-length (Homo sapiens, UniProt Q06124).
T2 construct: glutathione-S-transferase (GST) fusions to SHP-2 wild-type full-length (SHP-2-WT-FL) using the pGEX 4T-3 vector; GST (N, cleaved yes); made in house; host or cells: E. coli BL21(D3)LysS
T2 sequence (Q06124 1-593): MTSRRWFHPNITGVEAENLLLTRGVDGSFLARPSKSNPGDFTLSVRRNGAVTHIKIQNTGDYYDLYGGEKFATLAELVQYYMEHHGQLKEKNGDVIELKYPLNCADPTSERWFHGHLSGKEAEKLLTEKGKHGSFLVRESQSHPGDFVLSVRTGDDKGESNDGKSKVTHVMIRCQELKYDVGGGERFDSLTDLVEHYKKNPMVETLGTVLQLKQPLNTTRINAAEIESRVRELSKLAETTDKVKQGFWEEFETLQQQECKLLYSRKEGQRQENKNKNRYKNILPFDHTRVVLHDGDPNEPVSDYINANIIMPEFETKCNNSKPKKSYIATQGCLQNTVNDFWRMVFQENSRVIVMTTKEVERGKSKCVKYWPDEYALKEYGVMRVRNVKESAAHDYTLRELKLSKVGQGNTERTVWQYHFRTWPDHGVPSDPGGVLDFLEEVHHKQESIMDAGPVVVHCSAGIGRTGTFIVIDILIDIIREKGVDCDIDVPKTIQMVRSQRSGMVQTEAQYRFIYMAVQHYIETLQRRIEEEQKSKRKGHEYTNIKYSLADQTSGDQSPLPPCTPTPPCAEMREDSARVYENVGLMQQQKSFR
Put plainly: SPR: SHP-2-full-length binding to immobilized PD-1 phosphopeptides. The following applies: identical conditions as for ITSM-pY248 surface. On the technique in general: SPR reads the build-up and loss of mass on a sensor chip optically.

The target of the next assay is PD1LgY248F. Briefly: NanoBiT proximity assay (split luciferase) in HEK-293 cells. The following applies: PD1SmY248F + PD1LgY248F + SHP2WT, Fyn (-) kinase inactive; parent: est. 100; read off a plot.
The target of assay [4] is SHP-2 wild-type full-length, purified recombinant protein (UniProt Q06124).
The target in assay [5] is t-SHP-2 (SHP-2 amino acids 1-225, tandem N-SH2 and C-SH2 domains) (UniProt Q06124). Briefly: ITC; MicroCal ITC200; peptide (50-100 uM) titrated into t-SHP-2 (3-5 uM), 19 injections, 20 C; 50 mM HEPES pH 7.4, 100 mM NaCl, 5 mM TCEP.
Assay [6] concerns the target SHP-2 (UniProt Q06124). Briefly: PD-1 IP, SHP-2 blot. The following applies: reference: PD-1 wild type; sites Y248.
Assay [7] has as its target SHP-2 (UniProt Q06124). Put plainly: PD-1 IP, FLAG (SHP-2) blot. The following applies: reference: PD-1 wild type; sites Y248.

Square brackets hold non-standard residues; d marks the D form. Ends that are not written are not given here. pY = N[C@@H](Cc1ccc(OP(=O)(O)O)cc1)C(=O)O

Take “SAVPVFSVD(pY)GELDFQWREKTPEPPVPCVPEQTEYATIVFPS (SAVPVFSVD[pY]GELDFQWREKTPEPPVPCVPEQTEYATIVFPS) [PD-1cyto-pITIM-ITSM]”: the “peptide: t-SHP-2 interaction by ITC” value in assay [1] (same conditions) is given as “not detectable”.

In the case of “PD-1 NanoBiT fusions (PD-1-LgBiT and PD-1-SmBiT) in HEK-293 cells with kinase-inactive Fyn (from UniProt Q15116) Y223F”, in the assay with PD1LgY223F, the response turned out to be 90 RLU. Take “VD(pY)GELDFQ-Ahx4-SVD(pY)GELDFQW [bpITIM, bisphosphoryl ITIM-ITIM peptide with 4-Ahx spacer]”: the “increase in the catalytic activity of SHP-2 compared to negative control pIRSY727” value with SHP-2-WT (DiFMUP substrate, Fig. 5a) was “did not induce an increase”. With “PD-1 NanoBiT fusions (PD-1-LgBiT and PD-1-SmBiT) in HEK-293 cells with kinase-active Fyn (from UniProt Q15116) DM”, the response with PD1LgDM (Fyn (+) kinase active, parent: est. 255) is 90 RLU.

Take “PD-1 cytoplasmic tail peptide (from UniProt Q15116) PD-1cyto-pITIM-ITSM (pY223 only)”: in the assay with SHP-2 1-225 [2] (sites Y248), the “binding against the reference” value is recorded as “lost”. The KD result with SHP-2 1-225 [3] was “lost; reference 0.0159”. Take “KEDPSAVPVFSVD[pY]GELDFQWRE [pITIM, monophosphorylated human PD-1 ITIM-pY223 phosphopeptide]”: the “specific interaction of SHP-2 protein with peptide-coated surface” value at SHP-2-full-length is reported as “no specific interaction”. In addition, in the assay with SHP-2-WT (DiFMUP substrate, Fig. 5a), the “increase in the catalytic activity of SHP-2 compared to negative control pIRSY727” value was “did not induce an increase”. In the assay on SHP-2-WT (bpITSM 0.01 µM with increasing amounts of monophosphorylated peptide, Fig. 5d), the “effect on SHP-2 activation induced by bpITSM (competition)” value is listed as “only when added at very high molar concentrations (1000x excess of bpITSM)”. Turning to `CC[C@H](C)[C@H](NC(=O)[C@@H](NC(=O)[C@H](C)NC(=O)[C@H](Cc1ccc(OP(=O)(O)O)cc1)NC(=O)[C@H](CCC(=O)O)NC(=O)[C@@H](NC(=O)[C@H](CCC(N)=O)NC(=O)[C@H](CCC(=O)O)NC(=O)[C@@H]1CCCN1C(=O)[C@@H](NC(=O)[C@H](CS)NC(=O)[C@@H]1CCCN1C(=O)[C@@H](NC(=O)[C@@H]1CCCN1C(=O)[C@@H]1CCCN1C(=O)[C@H](CCC(=O)O)NC(=O)[C@@H]1CCCN1C(=O)[C@@H](NC(=O)[C@H](CCCCN)NC(=O)[C@H](CCC(=O)O)NC(=O)[C@H](CCCNC(=N)N)NC(=O)[C@H](Cc1c[nH]c2ccccc12)NC(=O)[C@H](CCC(N)=O)NC(=O)[C@H](Cc1ccccc1)NC(=O)[C@H](CC(=O)O)NC(=O)[C@H](CC(C)C)NC(=O)[C@H](CCC(=O)O)NC(=O)CNC(=O)[C@H](Cc1ccc(O)cc1)NC(=O)[C@H](CC(=O)O)NC(=O)[C@@H](NC(=O)[C@H](CO)NC(=O)[C@H](Cc1ccccc1)NC(=O)[C@@H](NC(=O)[C@@H]1CCCN1C(=O)[C@@H](NC(=O)[C@H](C)NC(=O)[C@@H](N)CO)C(C)C)C(C)C)C(C)C)[C@@H](C)O)C(C)C)C(C)C)[C@@H](C)O)[C@@H](C)O)C(=O)N[C@H](C(=O)N[C@@H](Cc1ccccc1)C(=O)N1CCC[C@H]1C(=O)N[C@@H](CO)C(=O)O)C(C)C` [PD-1cyto-ITIM-pITSM], the Kd – broadly, the equilibrium constant for the complex coming apart – in assay [1] is 775 nM. With “PD-1 NanoBiT fusions (PD-1-LgBiT and PD-1-SmBiT) in HEK-293 cells with kinase-inactive Fyn (from UniProt Q15116) Y248F”, the response with PD1LgY248F stood at 80 RLU. In the case of “Bisphosphoryl ITSM peptide pITSM-Ahx4-pITSM (bpITSM)”, the potency in inducing SHP-2 phosphatase activity relative to the bisphosphoryl peptide bpIRS in assay [4] came to 3 fold.

Regarding “PD-1 cytoplasmic tail peptide (from UniProt Q15116) PD-1cyto-ITIM-pITSM (pY248 only)”, in the assay with SHP-2 1-225 [2] (sites Y223), the “binding against the reference” value is listed as “same”. For “TE(pY)ATIVFP-Ahx10-QTE(pY)ATIVFPS [bpITSM-Ahx10, bisphosphoryl ITSM peptide with 10-Ahx spacer]”, the “catalytic activity of SHP-2 compared to the negative control pIRSY727” value in the assay with SHP-2-WT (3x lower enzyme concentration (0.5 µg/ml SHP-2-WT), Fig. 5e) is given as “caused a higher increase in SHP-2 activation”. In assay [5], “Bisphosphoryl peptide of native sequence of PD-1 cytoplasmic tail (PD-1cyto-pITIM-pITSM)” displayed a stoichiometry N (peptide per t-SHP-2) of 1. On to PD-1 (from UniProt Q15116) PD-1 Y248F, for which the “binding against the reference” value with SHP-2 [6] and with SHP-2 [7] was “lost” throughout. As to “Monophosphoryl peptide of native sequence of PD-1 cytoplasmic tail (PD-1cyto-ITIM-pITSM)”, the stoichiometry N (peptide per t-SHP-2) in assay [5] stood at 2. As to “VD(pY)GELDFQ-Ahx4- QTE(pY)ATIVFPS [pITIM-pITSM, bisphosphoryl ITIM-ITSM peptide with 4-Ahx spacer]”, the “peptide concentration at which catalytic activity of SHP-2 is increased” value in the assay on SHP-2-WT (DiFMUP substrate, compared to pIRSY727 and pIRSY1172, Fig. 5a) is listed as “above 1 µM”. With “PD-1 NanoBiT fusions (PD-1-LgBiT and PD-1-SmBiT) in HEK-293 cells with kinase-inactive Fyn (from UniProt Q15116) DM”, in the assay with PD1LgDM (Fyn (-) kinase inactive, parent: est. 100), the response was determined as 88 RLU.

Regarding `CC[C@H](C)[C@H](NC(=O)[C@@H](NC(=O)[C@H](C)NC(=O)[C@H](Cc1ccc(OP(=O)(O)O)cc1)NC(=O)[C@H](CCC(=O)O)NC(=O)[C@@H](NC(=O)[C@H](CCC(N)=O)NC(=O)[C@H](CCC(=O)O)NC(=O)[C@@H]1CCCN1C(=O)[C@@H](NC(=O)[C@H](CS)NC(=O)[C@@H]1CCCN1C(=O)[C@@H](NC(=O)[C@@H]1CCCN1C(=O)[C@@H]1CCCN1C(=O)[C@H](CCC(=O)O)NC(=O)[C@@H]1CCCN1C(=O)[C@@H](NC(=O)[C@H](CCCCN)NC(=O)[C@H](CCC(=O)O)NC(=O)[C@H](CCCNC(=N)N)NC(=O)[C@H](Cc1c[nH]c2ccccc12)NC(=O)[C@H](CCC(N)=O)NC(=O)[C@H](Cc1ccccc1)NC(=O)[C@H](CC(=O)O)NC(=O)[C@H](CC(C)C)NC(=O)[C@H](CCC(=O)O)NC(=O)CNC(=O)[C@H](Cc1ccc(OP(=O)(O)O)cc1)NC(=O)[C@H](CC(=O)O)NC(=O)[C@@H](NC(=O)[C@H](CO)NC(=O)[C@H](Cc1ccccc1)NC(=O)[C@@H](NC(=O)[C@@H]1CCCN1C(=O)[C@@H](NC(=O)[C@H](C)NC(=O)[C@@H](N)CO)C(C)C)C(C)C)C(C)C)[C@@H](C)O)C(C)C)C(C)C)[C@@H](C)O)[C@@H](C)O)C(=O)N[C@H](C(=O)N[C@@H](Cc1ccccc1)C(=O)N1CCC[C@H]1C(=O)N[C@@H](CO)C(=O)O)C(C)C` [PD-1cyto-pITIM-pITSM], binding in assay [1] was put at a Kd of 15.9 nM.

(Values after PMC7078208, “Interaction of SHP-2 SH2 domains with PD-1 ITSM induces PD-1 dimerization and SHP-2 activation” (Communications Biology, 2020).)
